Where two headings read alike, the source gives them in different places.

Data set [1] concerns the molecule itself. The data set can be described thus: AUC.
Data set [2] deals with the molecule itself. The data set can be described thus: AUC. This is another data set of the same source.
The data set “crystal structure” deals with the molecule itself. The data set can be described thus: crystal structure.

B1: LI Int CTD Y369A (133-452) (domain or fragment, Listeria innocua (prophage), UniProt Q928V6 133-452, looked up)
chain: RDRMVMGKIKRIEAGLPLTTAKGRTFGYDVIDTKLYINEEEAKQLRLIYDIFEEEQSITFLQKRLKKLGFKVRTYNRYNNWLTNDLYCGYVSYKDKVHVKGIHEPIISEEQFYRVQEIFSRMGKNPNMNKESASLLNNLVVCSKCGLGFVHRRKDTVSRGKKYHYRYYSCKTYKHTHELEKCGNKIWRADKLEELIIDRVNNYSFASRNIDKEDELDSLNEKLKIEHAKKKRLFDLAINGSYEVSELDSMMNDIDAQINYYEAQIEANEELKKNKKIQENLADLATVDFNSLEFREKQLYLKSLINKIYIDGEQVTIEWL
By Kd is commonly meant a measure of binding affinity in units of concentration. By stoichiometry N is commonly meant the number of molecules, sites or subunits per partner or assembly. With B1, in “AUC [1]”, binding was characterised by a dissociation constant (Kd) of 289 µM and the “stoichiometry N” value amounted to 2.

B2: LI Int CTD K362A (133-452) (domain or fragment, Listeria innocua (prophage), UniProt Q928V6 133-452, looked up)
chain: RDRMVMGKIKRIEAGLPLTTAKGRTFGYDVIDTKLYINEEEAKQLRLIYDIFEEEQSITFLQKRLKKLGFKVRTYNRYNNWLTNDLYCGYVSYKDKVHVKGIHEPIISEEQFYRVQEIFSRMGKNPNMNKESASLLNNLVVCSKCGLGFVHRRKDTVSRGKKYHYRYYSCKTYKHTHELEKCGNKIWRADKLEELIIDRVNNYSFASRNIDKEDELDSLNEKLKIEHAKAKRLFDLYINGSYEVSELDSMMNDIDAQINYYEAQIEANEELKKNKKIQENLADLATVDFNSLEFREKQLYLKSLINKIYIDGEQVTIEWL
With B2, in the data set “AUC [1]”, binding was put at a Kd of 45.2 µM and the “stoichiometry N” value stood at 2.

B3: LI Int carboxy-terminal domain, CTD (133-452) (domain or fragment, Listeria innocua (prophage), UniProt Q928V6 133-452, looked up)
chain: RDRMVMGKIKRIEAGLPLTTAKGRTFGYDVIDTKLYINEEEAKQLRLIYDIFEEEQSITFLQKRLKKLGFKVRTYNRYNNWLTNDLYCGYVSYKDKVHVKGIHEPIISEEQFYRVQEIFSRMGKNPNMNKESASLLNNLVVCSKCGLGFVHRRKDTVSRGKKYHYRYYSCKTYKHTHELEKCGNKIWRADKLEELIIDRVNNYSFASRNIDKEDELDSLNEKLKIEHAKKKRLFDLYINGSYEVSELDSMMNDIDAQINYYEAQIEANEELKKNKKIQENLADLATVDFNSLEFREKQLYLKSLINKIYIDGEQVTIEWL
On to B3, for which, in the data set “AUC [1]”, the Kd is 18.8 µM and the “stoichiometry N” value amounted to 2.

B4: His6Flag-Smt3-CC-I fusion of the LI Int coiled-coil domain (345-405) (domain or fragment, Listeria innocua (prophage), UniProt Q928V6 345-405, looked up)
chain: EDELDSLNEKLKIEHAKKKRLFDLYINGSYEVSELDSMMNDIDAQINYYEAQIEANEELKK
On to B4, for which, in “AUC [2]”, the equilibrium dissociation constant (Kd) came to 20.1 µM and the “stoichiometry N” value worked out at 2.

B5: Listeria innocua integrase (LI Int), wild type, full length (enzyme, Listeria innocua (prophage), UniProt Q928V6 1-452, looked up)
chain: MKAAIYIRVSTQEQVENYSIQAQTEKLTALCRSKDWDVYDTFIDGGYSGSNMNRPALNEMLSKLHEIDAVVVYRLDRLSRSQKDTITLIEEYFLKNNVEFVSLSETLDTSSPFGRAMIGILSVFAQLERETIRDRMVMGKIKRIEAGLPLTTAKGRTFGYDVIDTKLYINEEEAKQLRLIYDIFEEEQSITFLQKRLKKLGFKVRTYNRYNNWLTNDLYCGYVSYKDKVHVKGIHEPIISEEQFYRVQEIFSRMGKNPNMNKESASLLNNLVVCSKCGLGFVHRRKDTVSRGKKYHYRYYSCKTYKHTHELEKCGNKIWRADKLEELIIDRVNNYSFASRNIDKEDELDSLNEKLKIEHAKKKRLFDLYINGSYEVSELDSMMNDIDAQINYYEAQIEANEELKKNKKIQENLADLATVDFNSLEFREKQLYLKSLINKIYIDGEQVTIEWL
Take B5: in the data set “AUC [1]”, the dissociation constant Kd is ≤ 0.032 µM and the “stoichiometry N” value turned out to be 2.

B6: LI Int isolated coiled-coil domain CC-III (349-400) (domain or fragment, Listeria innocua (prophage), UniProt Q928V6 349-400, looked up)
chain: DSLNEKLKIEHAKKKRLFDLYINGSYEVSELDSMMNDIDAQINYYEAQIEAN
For B6, the binding result in the data set “crystal structure” is “binds”.

B7: LI Int with the coiled-coil motif deleted, IntΔCC (Δ342-416) (enzyme, Listeria innocua (prophage), UniProt Q928V6 1-452, looked up)
chain: MKAAIYIRVSTQEQVENYSIQAQTEKLTALCRSKDWDVYDTFIDGGYSGSNMNRPALNEMLSKLHEIDAVVVYRLDRLSRSQKDTITLIEEYFLKNNVEFVSLSETLDTSSPFGRAMIGILSVFAQLERETIRDRMVMGKIKRIEAGLPLTTAKGRTFGYDVIDTKLYINEEEAKQLRLIYDIFEEEQSITFLQKRLKKLGFKVRTYNRYNNWLTNDLYCGYVSYKDKVHVKGIHEPIISEEQFYRVQEIFSRMGKNPNMNKESASLLNNLVVCSKCGLGFVHRRKDTVSRGKKYHYRYYSCKTYKHTHELEKCGNKIWRADKLEELIIDRVNNYSFASRNATVDFNSLEFREKQLYLKSLINKIYIDGEQVTIEWL
Turning to B7, in the data set “AUC [1]”, the Kd came out at 5.7 µM and the “stoichiometry N” value is 2.
For SLNEKLKIEHAKKKRLFDLYINGSYEVSELDSMMNDIDAQINYYEAQIEA (domain or fragment, Listeria innocua (prophage), UniProt Q928V6 350-399, looked up) [LI Int isolated coiled-coil domain CC-II (350-399)], the binding result in the data set “crystal structure” is given as “binds”.
